From publication PMC3501490, “An Investigation of Hierachical Protein Recruitment to the Inhibitory Platelet Receptor, G6B-b” (PLoS ONE, 2012)

Target: G6B-b dual phosphopeptide pY211/pY237 (Homo sapiens), O95866
Assay: SPR

G6B-b dual phosphopeptide pY211/pY237 (Homo sapiens), O95866, sequence (O95866 206-241): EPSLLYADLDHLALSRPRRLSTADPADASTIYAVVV

Kd: 0.48 nM
B1: SHP-2 tandem SH2, Q06124 (protein)
chain: WFHPNITGVEAENLLLTRGVDGSFLARPSKSNPGDFTLSVRRNGAVTHIKIQNTGDYYDLYGGEKFATLAELVQYYMEHHGQLKEKNGDVIELKYPLNCADPTSERWFHGHLSGKEAEKLLTEKGKHGSFLVRESQSHPGDFVLSVRTGDDKGESNDGKSKVTHVMIRCQELKYDVGGGERFDSLTDLVEHYKKNPMVETLGTVLQLKQPL
